Results published in US7919580B2, “Polysaccharide-protein binding model and nano-fibril formation of a starch binding domain” (priority 2008, dated 2011).
Substitutions are numbered along the chain they refer to. In names and notes the source's numbering stands.

Columns and labels:
RoGACBM21 = target: T1, RoGACBM21 (Rhizopus oryzae, UniProt P07683); conditions: reported binding assay results; read-out: Kd (binding affinity) of soluble ligand with RoGACBM21; cited from earlier work
T1 construct: the recombinant SBD of 108 amino acid residues; 6xHis (C); made in house; host or cells: E. coli BL21-Gold (DE3), pET23a(+)

[1] = Starch binding isotherm (saturation binding assay); conditions: insoluble starch, 50 mM sodium acetate pH 5.5, 25° C., 16 h
Description: The starch binding isotherm was analyzed as a saturation binding assay as reported. Wild-type and mutant RoGACBM21 derivatives (100 μL, in 50 mM sodium acetate, pH 5.5) were mixed with 0.1 mg of prewashed insoluble starch and incubated at 25° C. with gentle stirring for 16 h. After centrifugation at 16,000×g for 10 min at 4° C., the protein concentration of the supernatant (unbound protein) was determined by BCA assay, and the amount of bound protein was calculated from the difference between the initial and unbound protein concentrations. The Kd and Bmax values were determined by fitting to the non-linear regression of the binding isotherms using a standard single-site binding model.

[2] = Fluorescence spectrophotometry of binding to βCD; conditions: intrinsic protein fluorescence, 50 mM sodium acetate pH 5.5, 25° C.; read-out: β-cyclodextrin Kd
Description: Fluorescence spectrophotometry of the binding of wild-type or mutant RoGACBM21 to βCD was recorded by measuring changes in the intrinsic protein fluorescence intensity. Experiments were performed in 50 mM sodium acetate, pH 5.5, at 25° C. using a PerkinElmer LS-55 spectrophotometer. Circular and linear carbohydrates (2 to 20 mM) were titrated into RoGACBM21 (1 μM, 2 mL), and the fluorescence-emission spectrum was monitored at 350 nm with a fixed excitation at 280 nm. The relative changes in fluorescence intensity were plotted against ligand concentration, and the data were fitted to a simulated curve using the appropriate equation for a single binding site.

[3] = Thioflavin T fluorescence (ThT) assay for fibril formation; type: physicochemical; conditions: SBD sample heated at 97° C.
Description: Purified SBDs or synthetic peptides were dissolved in 10 mM sodium-citrate or phosphate-citrate buffer to a final concentration of 100 μM (at indicated pH). […] The measurements were recorded in a Perkin Elmer LS-55 spectrofluorometer at 25° C.
The relative fluorescence, peaked at 482 nm, subtracted from the background of buffer from the total fluorescence were measured as the amount of fibrillar aggregates with the excitation wavelength (slit width=4 nm) set at 450 nm and monitoring emission wavelength (slit width=8 nm) set at from 470 to 630 nm.

[4] = starch; fold higher than AnGACBM20; cited from earlier work
[5] = Circular dichroism spectroscopy and thermal unfolding; type: physicochemical; conditions: far-UV CD at 215 nm; for β-sheet signals upon heating: ascending temperature
Description: (A) CD spectra were collected from 200 to 260 nm at 25° C. at a concentration of 50 μM in 10 mM sodium acetate buffer (pH 4.5). (B) Thermal unfolding of SBD was measured by monitoring changes in the far-UV CD spectra at 215 nm. (C) CD spectra of SBD were recorded between 200 and 260 nm at various temperatures
CD spectra and thermostabilities were recorded in a 0.1-cm cuvette using an Aviv model 202 CD Spectrometer. Data collection and calculation were carried out as previously described.

[6] = Sedimentation velocity ultracentrifugation; type: physicochemical
Description: The sedimentation velocity studies were performed at 50,000 rpm for 30 μM (solid line) and 60 μM (dotted line) SBD, and absorbance scans were recorded at 280 nm.

## OC[C@H]1O[C@@H]2O[C@H]3[C@H](O)[C@@H](O)[C@@H](O[C@H]4[C@H](O)[C@@H](O)[C@@H](O[C@H]5[C@H](O)[C@@H](O)[C@@H](O[C@H]6[C@H](O)[C@@H](O)[C@@H](O[C@H]7[C@H](O)[C@@H](O)[C@@H](O[C@H]8[C@H](O)[C@@H](O)[C@@H](O[C@H]1[C@H](O)[C@H]2O)O[C@@H]8CO)O[C@@H]7CO)O[C@@H]6CO)O[C@@H]5CO)O[C@@H]4CO)O[C@@H]3CO [βCD, β-cyclodextrin]
RoGACBM21
  Kd: ~5 µM

## maltoheptaose [G7]
RoGACBM21
  Kd: ~5 µM

B1: WT: recombinant starch-binding domain (family 21 carbohydrate binding module) of Rhizopus oryzae glucoamylase, 108 amino acid residues (protein, listed as Rhizopus oryzae)
chain: ASIPSSASVQLDSYNYDGSTFSGKIYVKNIAYSKKVTVVYADGSDNWNNNGNIIAASFSGPISGSNYEYWTFSASVKGIKEFYIKYEVSGKTYYDNNNSANYQVSTSK
modifications: DOMAIN (1)..(108)
[1]
  Kd: 1.4 ± 0.1 µM
  Starch Bmax: 41.1 ± 1.1 µmol/g
[2]
  Kd: 5.1 ± 0.7 µM
[3]
  increase in ThT fluorescence emission intensity at 482 nm: 9 fold
[4]
  maximal amount of bound protein (Bmax) relative to AnGACBM20: 40-70 fold
[5]
  apparent temperature for unfolding: approximately 65 °C
[6]; 30 μM, 50,000 rpm
  s20 (sedimentation coefficient): 1.3 S
[6]; high concentration (60 μM)
  oligomeric state in solution: oligomeric forms of SBD appeared
[6]; low concentration (30 μM)
  oligomeric state in solution: mainly as a single monomeric species

B2: SBD (K108R): SBD mutant K108R (protein)
chain: B1 chain with K108R
modifications: Modified SBD.
[5]
  β-sheet signals upon heating: still showed strong β-sheet signals upon heating

B3: SBD (K108D): SBD mutant K108D (protein)
chain: B1 chain with K108D
modifications: Modified SBD.
[5]
  β-sheet signals upon heating: diminished the β-sheet signals upon heating

B4: SBD (K108H): SBD mutant K108H (protein)
chain: B1 chain with K108H
modifications: Modified SBD.
[5]
  β-sheet signals upon heating: still showed strong β-sheet signals upon heating
